Source: the supplement of paper PMC7877785
± gives the uncertainty stated by the source.

Experiment: self-splicing fitness, log relative to wild type (ln ratio); higher = more splicing; Tetrahymena group I intron in knt gene, E. coli kanamycin selection, DiMSum; sequences stand for … in CUCUCU…GGAGGGAAAAGUUAUCAGGCAUGCACCUGGUAGCUAGUCUUUAAACCAAUAGAUUGCAUCGGUUUAAAAGGCAAGACCGUCAAAUUGCGGGAAAGGGGUCAACAGCCGUUCAGUACCAAGUCUCAGGGGAAACUUUGAGAUGGCCUUGCAAAGGGUAUGGUAAUAAGCUGACGGACAUGGUCCUAACCACGCAGCCAAGUCCUAAGUCAACAGAUCUUCUGUUGAUAUGGAUGCAGUUCACAGACUAAAUGUCGGUCGGGGAAGAUGUAUUCUUCUCAUAAGAUAUAGUCGGACCUCUCCUUAAUGGGAGCUAGCGGAUGAAGUGAUGCAACACUGGAGCCGCUGGGAACUAAUUUGUAUGCGAAAGUAUAUUGAUUAGUUUUGGAGUACUCGUGGUCG
Outline: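 Colonies from six replicate transformations of E. coli BL21(DE3) were pooled and amplicon-sequenced on an Illumina HiSeq 2500. The library placed an intron with all eight P1ex-region nucleotides randomised inside the knt kanamycin-resistance gene on pET-22b(+), and cells grew overnight at 37°C or 30°C on LB agar with or without 25 μg/mL kanamycin (plus 100 μg/mL carbenicillin, 50 μM IPTG, 0.2% rhamnose). Fitness is the DiMSum error-weighted combination of wild-type-normalised replicate fold changes, kanamycin versus none.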

| Sequence | self-splicing fitness (ln) (30 °C) | self-splicing fitness (ln) (37 °C) |
| --- | --- | --- |
| GGUCAGCAAUAUUACGGGCA | -0.684 ± 0.1 | -0.119 ± 0.11 |
| UGGCAGCAAUAUUACGGCGA | 0.0623 ± 0.12 | 0.97 ± 0.13 |
| GCCGAGCAAUAUUACGAUCU | – | -0.908 ± 0.4 |
| AUUUAGCAAUAUUACGCAUC | -3.58 ± 0.19 | -3.27 ± 0.32 |
| CAUCAGCAAUAUUACGACCA | -1.38 ± 0.19 | -1.1 ± 0.19 |
| CGAGAGCAAUAUUACGGUCC | -2.23 ± 0.23 | – |
| CCUGAGCAAUAUUACGUCCG | -3.25 ± 0.24 | -1.93 ± 0.33 |
| CCAAAGCAAUAUUACGUCCC | -3.62 ± 0.35 | -1.59 ± 0.27 |
| GCUCAGCAAUAUUACGGCGU | -0.15 ± 0.062 | 0.324 ± 0.082 |
| GAAUAGCAAUAUUACGUGGC | -3.67 ± 0.27 | -1.34 ± 0.17 |
| GCUGAGCAAUAUUACGCUCU | -1.12 ± 0.17 | -0.769 ± 0.2 |
| AUCGAGCAAUAUUACGCGGU | -2.9 ± 0.27 | -1.4 ± 0.22 |
| CUAAAGCAAUAUUACGGGUU | -4.13 ± 0.28 | -3.49 ± 0.33 |
| AAAAAGCAAUAUUACGAUAA | -1.03 ± 0.074 | -1.1 ± 0.093 |
| CAUCAGCAAUAUUACGCAUG | -2.03 ± 0.11 | -2.23 ± 0.13 |
| UACAAGCAAUAUUACGGUUC | -3.49 ± 0.15 | -1.73 ± 0.13 |
| CUUGAGCAAUAUUACGCUUA | -2.82 ± 0.29 | -3.02 ± 0.37 |
| GAACAGCAAUAUUACGUCUC | -2.17 ± 0.17 | -0.443 ± 0.16 |
| UCCUAGCAAUAUUACGAGGA | -2.59 ± 0.48 | -2.62 ± 0.35 |
| ACAAAGCAAUAUUACGAUCC | -1.55 ± 0.071 | 0.389 ± 0.1 |
| GUGGAGCAAUAUUACGACGA | – | -1.12 ± 0.46 |
| CAGGAGCAAUAUUACGCCGU | -4.09 ± 0.31 | -2.29 ± 0.29 |
| UUCUAGCAAUAUUACGACAA | -0.37 ± 0.12 | -0.0185 ± 0.17 |
| UAAGAGCAAUAUUACGCAGG | -4.39 ± 0.36 | -2.2 ± 0.2 |
| CAUAAGCAAUAUUACGGUAU | -4.64 ± 0.26 | -2.94 ± 0.21 |
| GCGAAGCAAUAUUACGGAAA | -3.34 ± 0.36 | -1.57 ± 0.27 |

| Sequence | self-splicing fitness (ln) (30 °C) | self-splicing fitness (ln) (37 °C) |
| --- | --- | --- |
| CUACAGCAAUAUUACGUCGA | -3.59 ± 0.22 | -3.7 ± 0.3 |
| AACUAGCAAUAUUACGGUCG | -0.193 ± 0.062 | 0.193 ± 0.085 |
| GCUAAGCAAUAUUACGAUAU | -0.896 ± 0.066 | -0.164 ± 0.094 |
| GACAAGCAAUAUUACGUCUC | -4.15 ± 0.27 | -1.18 ± 0.19 |
| ACGAAGCAAUAUUACGGAUC | -3.59 ± 0.12 | -1.47 ± 0.096 |
| CCGAAGCAAUAUUACGUUGG | -3.26 ± 0.19 | -2.16 ± 0.19 |
| ACGUAGCAAUAUUACGGUCA | -0.681 ± 0.16 | 0.577 ± 0.17 |
| GUGAAGCAAUAUUACGGUUG | -1.71 ± 0.076 | -1.13 ± 0.11 |
| ACACAGCAAUAUUACGCGAU | -3.11 ± 0.11 | -2.02 ± 0.11 |
| UUACAGCAAUAUUACGAAAG | -2.87 ± 0.29 | -2.73 ± 0.33 |
| CGUUAGCAAUAUUACGUAAA | -2.88 ± 0.22 | -1.88 ± 0.26 |
| GGAUAGCAAUAUUACGUUAU | -4.06 ± 0.24 | -3.28 ± 0.23 |
| GGAGAGCAAUAUUACGCUCC | – | -1.68 ± 0.45 |
| CCCAAGCAAUAUUACGAGCC | -3.79 ± 0.4 | -2.79 ± 0.44 |
| GGUAAGCAAUAUUACGGAAA | -3.13 ± 0.35 | -0.547 ± 0.16 |
| UCAUAGCAAUAUUACGAAUU | -3.73 ± 0.32 | -2.48 ± 0.24 |
| UACCAGCAAUAUUACGUGGU | -3.86 ± 0.14 | -2.89 ± 0.16 |
| CCGAAGCAAUAUUACGUUAC | -3.03 ± 0.16 | -2.43 ± 0.26 |
| AUUGAGCAAUAUUACGUUCG | -1.65 ± 0.13 | -1.14 ± 0.14 |
| GCCAAGCAAUAUUACGCAUG | -4.41 ± 0.46 | -2.22 ± 0.3 |
| UGCUAGCAAUAUUACGGUAG | -1.49 ± 0.098 | -0.852 ± 0.13 |
| ACCUAGCAAUAUUACGGUUA | -2.38 ± 0.18 | -1.57 ± 0.14 |
| CGACAGCAAUAUUACGAAAU | -3.15 ± 0.12 | -3.06 ± 0.19 |
| GUGAAGCAAUAUUACGUGAC | -2.77 ± 0.23 | -2.18 ± 0.27 |
| GUUCAGCAAUAUUACGUUGA | -3.12 ± 0.28 | -1.57 ± 0.17 |
| ACUCAGCAAUAUUACGCUUC | -2.3 ± 0.094 | -1.48 ± 0.12 |

| Sequence | self-splicing fitness (ln) (30 °C) | self-splicing fitness (ln) (37 °C) |
| --- | --- | --- |
| GGGGAGCAAUAUUACGCCGU | -2.64 ± 0.33 | -0.911 ± 0.34 |
| AAUCAGCAAUAUUACGAAAC | -1.97 ± 0.19 | -0.858 ± 0.16 |
| CGGGAGCAAUAUUACGUAUU | -4.48 ± 0.41 | -2.31 ± 0.37 |
| UCCUAGCAAUAUUACGCCGU | -1.83 ± 0.26 | -0.887 ± 0.24 |
| AGUAAGCAAUAUUACGUCAC | -3.26 ± 0.19 | -2.11 ± 0.17 |
| UCGAAGCAAUAUUACGGGAG | -3.68 ± 0.33 | -2.91 ± 0.31 |
| CCCGAGCAAUAUUACGAUUA | -3.04 ± 0.24 | -2.4 ± 0.21 |
| CCUAAGCAAUAUUACGUCAA | -2.65 ± 0.16 | -3.14 ± 0.21 |
| UGAGAGCAAUAUUACGGUUG | -2.6 ± 0.12 | -2.64 ± 0.19 |
| ACGAAGCAAUAUUACGAGGG | -3.54 ± 0.17 | -3.26 ± 0.3 |
| AGUCAGCAAUAUUACGGAAG | -3.36 ± 0.17 | -1.67 ± 0.16 |
| UACUAGCAAUAUUACGCGGA | -2.97 ± 0.18 | -1.42 ± 0.16 |
| AGGAAGCAAUAUUACGUGAA | -2.53 ± 0.35 | -1.97 ± 0.24 |
| UGAGAGCAAUAUUACGAUGC | -2.13 ± 0.39 | -0.477 ± 0.45 |
| ACCUAGCAAUAUUACGACCA | -1.25 ± 0.16 | 0.323 ± 0.17 |
| ACCUAGCAAUAUUACGGCAC | -0.933 ± 0.062 | -0.492 ± 0.07 |
| UCCCAGCAAUAUUACGGAUA | -1.51 ± 0.093 | -0.799 ± 0.084 |
| GCUUAGCAAUAUUACGAGUG | -0.38 ± 0.096 | -0.545 ± 0.11 |
| ACUUAGCAAUAUUACGACAA | -1.55 ± 0.17 | -0.888 ± 0.28 |
| UAGUAGCAAUAUUACGGCGC | -1.6 ± 0.46 | -1.4 ± 0.44 |
| AGUUAGCAAUAUUACGCAAC | -2.75 ± 0.24 | -3.1 ± 0.37 |
| UCCGAGCAAUAUUACGAUGG | -0.964 ± 0.097 | -0.212 ± 0.12 |
| CCCUAGCAAUAUUACGCAAU | -3.56 ± 0.23 | -2.02 ± 0.27 |
| CGGAAGCAAUAUUACGCGGU | -3.98 ± 0.29 | -2.73 ± 0.22 |
| ACGAAGCAAUAUUACGAAAU | -3.34 ± 0.2 | -1.5 ± 0.17 |
